Experimental data reported in US20150353909.

T1: HA3-RUB-GST, Q9SHE7
T1 chain: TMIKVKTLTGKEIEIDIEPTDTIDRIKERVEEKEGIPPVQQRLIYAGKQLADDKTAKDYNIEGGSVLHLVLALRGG


What was measured:
[1] = target: K48-tetraubiquitin chains, P0CG48
[2] = target: K63-tetraubiquitin chains, P0CG48
[3] = target: purified recombinant linear UB trimers
HA3-RUB-GST, Q9SHE7 = target: T1, HA3-RUB-GST, Q9SHE7
[4] = target: purified recombinant linear UB dimers
[5] = target: purified recombinant linear UB tetramers
[6] = target: HA3-UBQ-GST [GST: P08515]

Chain of K48-tetraubiquitin chains, P0CG48 (P0CG48 whole entry, looked up): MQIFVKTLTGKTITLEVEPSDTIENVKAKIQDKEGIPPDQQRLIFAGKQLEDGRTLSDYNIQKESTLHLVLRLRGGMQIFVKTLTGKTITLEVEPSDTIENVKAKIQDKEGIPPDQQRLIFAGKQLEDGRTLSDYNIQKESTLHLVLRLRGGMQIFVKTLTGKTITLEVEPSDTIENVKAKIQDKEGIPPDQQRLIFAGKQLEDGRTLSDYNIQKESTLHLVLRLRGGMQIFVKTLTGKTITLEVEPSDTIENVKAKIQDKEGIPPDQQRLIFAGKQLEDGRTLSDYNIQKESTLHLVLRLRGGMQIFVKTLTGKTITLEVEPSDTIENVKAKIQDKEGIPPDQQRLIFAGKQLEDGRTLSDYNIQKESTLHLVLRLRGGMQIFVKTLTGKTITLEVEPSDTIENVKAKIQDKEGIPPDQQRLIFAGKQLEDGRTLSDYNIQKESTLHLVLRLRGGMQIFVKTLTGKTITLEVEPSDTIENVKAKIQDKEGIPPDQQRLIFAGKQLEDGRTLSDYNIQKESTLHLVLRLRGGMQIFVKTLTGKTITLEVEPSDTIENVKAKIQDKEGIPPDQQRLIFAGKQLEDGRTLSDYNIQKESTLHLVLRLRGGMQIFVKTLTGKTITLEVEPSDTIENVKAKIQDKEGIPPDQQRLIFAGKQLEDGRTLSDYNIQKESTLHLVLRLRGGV
Chain of K63-tetraubiquitin chains, P0CG48 (P0CG48 whole entry, looked up): as above

Row | Protein | in vitro deubiquitylation activity [1] | in vitro deubiquitylation activity (HA3-SUMO-GST, P55852) | in vitro deubiquitylation activity [2] | in vitro deubiquitylation activity [3] | in vitro deubiquitylation activity (HA3-RUB-GST, Q9SHE7) | in vitro deubiquitylation activity [4] | in vitro deubiquitylation activity [5] | in vitro deubiquitylation activity [6]
1 | His-tagged OTU7a (protein) MAKTKQQKSKPKKQPHQKQGKDCDLSQFRAQLDALGLKIIQVTADGNCFFRAIADQLEGNEDEHNKYRNMIVLYIVKNREMFEPFIEDDVPFEDYCKTMDDDGTWAGNMELQAASLVTRSNICIHRNMSPRWYIRNFEDTRTRMIHLSYHDGEHYNSVRSKEDACGGPARPVVIEADAKVSAASKQAKATESKSKNKADKCHVNAGAIKVVMSGSCCDNTEKAEQVLLQVNGDVDAAIEFLIADQGMESLTENDTETASASDTINPKHASDSPMENTEQAREELIEEESASGNNSETVQAKCTTQTDDKKIPRNKTCPCGSKKKYKSCCGTATGRSSVKLLVSQTMESKKGRKNLRRGTSNEVEANAPDVGALCI | + | - | ++ | - | + | - | - | ++
2 | His-tagged OTU9 (protein) MGYEPDPDALRWGLHDLEVCTLTNAGSCSSVTRYESGGGGTQGYVREGYNQPVTGYVDNDAVIAQFYQDELSRVARAEASGINSLSPTSVVAQDWPHPHQGQENQGEAIDITQESDILHNHNGNMEDKNVARIRFEGGQSSPSRDDDSVCSVEIEEESWSEVGKRLNQMIPIAHVPKINGELPSEDEQISDHERLFQRLQLYGLVENKIEGDGNCQFRSLSDQLYRSPEHHNFVREQVVNQLAYNREIYEGYVPMAYNDYLKAMKRNGEWGDHVTLQAAADLFGVRMFVITSFKDTCYIEILPHFQKSNRLICLSFWAEVHYNSIYPEGELPIPEGKKKKKYWVF | ++ | - | ++ | - | + | - | - | ++
3 | GST-OTU10 (protein) MVSHEENTSIVEWFLGPHPYTYPPYGIEMIHEDDEVAVAHHHHHHQSGEYYREYEDHRSSDVDNDEIIARTLQDDFLQLEIAESNDYSHQNQQQQHQQEGYTNNYSNNNNGYAWNDQSPAVDYSSEWIGNDNDQDGRSDDSVNVFSCSSPSDTDEYVYSWESDQCDADGEFGRRLNQMVPIPYIPKINGEIPPEEEAVSDHERLRNRLEMFDFTEVKVPGDGNCQFRALADQLYKTADRHKHVRRQIVKQLKSRPDSYQGYVPMDFSDYLRKMSRSGEWGDHVTLQAAADAYRVKIVVLTSFKDTCYIEILPTSQESKGVIFLSFWAEVHYNAIYLNRDTSETELQRKRKWWRFGN | ++ | - | +++ | - | + | - | - | ++
